In the assay the test system is ob/ob mice. Kind of assay: Body weight of ob/ob mice treated with recombinant leptin. Format: in vivo. The conditions noted are these: 0.1 mg/mouse or 0.25 mg/mouse daily. The procedure:
As a control, we tested the ability of recombinant leptin to reduce body weight in ob/ob mice using either 0.1 mg/mouse or 0.25 mg/mouse daily.

Here are results for one molecule from patent publication US20110288011A1, “PEPTIDE THERAPEUTIC CONJUGATES AND USES THEREOF” (priority 2008, published 2011).

B1: recombinant leptin: recombinant leptin used as a control in ob/ob mice (protein, UniProt P41160 22-167, looked up)
Leptin: VPIQKVQDDTKTLIKTIVTRINDISHTQSVSAKQRVTGLDFIPGLHPILSLSKMDQTLAVYQQVLTSLPSQNVLQIANDLENLRDLLHLLAFSKSCSLPQTSGLQKPESLDGVLEASLYSTEVVALSRLQGSLQDILQQLDVSPEC
For B1, the body weight entry is reported as “reduce body weight in these mice in a dose-dependent manner”.
